{"source": "paper PMC6902002", "about": "“Recognition and processing of branched DNA substrates by Slx1–Slx4 nuclease”", "molecular_target": "T1, Tt-Slx1 E79Q-Slx4CCD3 (Thielavia terrestris, UniProt G2QV68;G2RCY5 1-324;834-936, E79Q)", "T1 sequence 1": "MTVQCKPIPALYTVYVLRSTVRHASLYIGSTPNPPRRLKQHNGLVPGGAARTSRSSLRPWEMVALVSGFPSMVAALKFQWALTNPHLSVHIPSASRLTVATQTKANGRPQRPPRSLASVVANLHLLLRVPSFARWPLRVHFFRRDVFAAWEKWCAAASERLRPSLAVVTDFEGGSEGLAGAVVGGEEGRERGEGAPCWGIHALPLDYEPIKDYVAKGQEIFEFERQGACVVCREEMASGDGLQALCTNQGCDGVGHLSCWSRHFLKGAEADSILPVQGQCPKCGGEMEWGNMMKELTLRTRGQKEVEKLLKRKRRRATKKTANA", "T1 sequence 2": "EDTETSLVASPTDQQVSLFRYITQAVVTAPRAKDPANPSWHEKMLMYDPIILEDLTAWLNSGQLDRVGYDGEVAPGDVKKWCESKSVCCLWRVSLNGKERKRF", "assay": "X-ray crystallography; Zn2+ in RING domain; 0.2 M CaCl2, 5 mM EDTA, pH 6.0; 2.7 A; Fluorescence anisotropy: 20 mM HEPES pH 7.5, 2.5 mM CaCl2, 100 mM NaCl, 0.1 mg/ml BSA, 25 C; 25 nM DNA, 0-500 nM protein", "settings": "protein: recombinant; tags: N-terminal 6xHis on Slx1; Slx4CCD3 untagged; chain copies: 2;2; self-annealed splayed arm; single G-A mismatch and unpaired bases in crystal"}
{"binder": "CAATCGGCAATGACCTTTGGTCATTCGGCAGAT (structured_DNA)", "note": "[self-annealing splayed-arm crystallization DNA]", "values": [{"measurement": "binding result", "result": "binds"}]}
